This note sets out measurements from patent publication US20090111753A1, “Nogo-A Polypeptide Fragments, Variant Nogo Receptor-1 Polypeptides, and Uses Thereof” (Yale University, priority 2004, published 2009).

B1: AP fusion protein with the B4C fragment of Amino-Nogo-A fused directly to Nogo-66 (ligand)
chain: LLPPDVSALATQAEIESIVKPKVLVKEAEKKLPSDTEKEDRSPSAIFSAELSKTSVVDLLYWRDIKKTGRIYKGVIQAIQKSDEGHPFRAYLESEVAISEELVQKYSNSALGHVNCTIKELRRLFLVDDLVDSLK
notes: domain: Nogo-66; also called AP-B4C66; AP-B4C-66; not shown: alkaline phosphatase (AP), vector pcAP6

The target of test [1] is T1, NgR expressed on COS-7 cells (species not stated).
T1 chain: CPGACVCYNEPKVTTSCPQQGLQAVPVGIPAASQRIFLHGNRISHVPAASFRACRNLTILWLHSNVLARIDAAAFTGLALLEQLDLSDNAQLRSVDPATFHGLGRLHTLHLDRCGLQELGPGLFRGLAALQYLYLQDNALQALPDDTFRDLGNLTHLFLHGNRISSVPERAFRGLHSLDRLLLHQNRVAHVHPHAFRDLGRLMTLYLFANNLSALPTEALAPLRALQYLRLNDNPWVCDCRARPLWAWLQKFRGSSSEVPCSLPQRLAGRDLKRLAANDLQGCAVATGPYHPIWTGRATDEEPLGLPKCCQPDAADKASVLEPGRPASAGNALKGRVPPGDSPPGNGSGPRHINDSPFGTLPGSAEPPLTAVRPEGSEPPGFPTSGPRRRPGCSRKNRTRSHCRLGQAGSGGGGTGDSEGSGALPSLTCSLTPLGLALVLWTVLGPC
In words: AP-ligand binding to NgR-expressing COS-7 cells (Scatchard).

The target of test [2] is T2, human NgR1 alanine mutant 163 (human, UniProt Q9BZR6 27-473).
T2 sequence: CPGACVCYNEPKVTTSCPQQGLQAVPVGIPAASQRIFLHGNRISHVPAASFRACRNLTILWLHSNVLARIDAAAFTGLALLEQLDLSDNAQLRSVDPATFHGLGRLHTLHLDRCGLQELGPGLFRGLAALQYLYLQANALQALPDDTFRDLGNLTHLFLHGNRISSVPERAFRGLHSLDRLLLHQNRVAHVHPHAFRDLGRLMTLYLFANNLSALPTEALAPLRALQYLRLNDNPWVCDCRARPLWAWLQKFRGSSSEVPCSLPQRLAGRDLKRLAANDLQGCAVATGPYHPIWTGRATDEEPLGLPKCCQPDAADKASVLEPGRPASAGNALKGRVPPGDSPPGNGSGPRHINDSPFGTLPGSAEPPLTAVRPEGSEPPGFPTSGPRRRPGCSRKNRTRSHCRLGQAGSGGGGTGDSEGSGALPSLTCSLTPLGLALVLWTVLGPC
In words: AP-ligand binding, COS-7.

The target of test [3] is T3, human NgR1 alanine mutant 133, 136 (human, UniProt Q9BZR6 27-473).
T3 sequence: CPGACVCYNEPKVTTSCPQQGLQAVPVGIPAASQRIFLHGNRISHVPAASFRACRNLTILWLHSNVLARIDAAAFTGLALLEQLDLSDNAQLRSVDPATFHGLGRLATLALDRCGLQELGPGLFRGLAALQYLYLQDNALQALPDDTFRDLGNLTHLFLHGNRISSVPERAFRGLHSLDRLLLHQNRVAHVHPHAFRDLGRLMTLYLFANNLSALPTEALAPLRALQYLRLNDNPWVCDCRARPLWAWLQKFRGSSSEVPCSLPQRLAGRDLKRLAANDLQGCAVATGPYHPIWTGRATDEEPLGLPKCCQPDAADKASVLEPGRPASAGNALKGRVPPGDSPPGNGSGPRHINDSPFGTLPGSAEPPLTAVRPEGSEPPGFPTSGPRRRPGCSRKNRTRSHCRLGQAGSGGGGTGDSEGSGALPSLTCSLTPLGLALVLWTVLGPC
Kind of test: AP-ligand binding, COS-7.

Test [4] deals with T4, human NgR1 alanine mutant 158, 160 (human, UniProt Q9BZR6 27-473).
T4 sequence: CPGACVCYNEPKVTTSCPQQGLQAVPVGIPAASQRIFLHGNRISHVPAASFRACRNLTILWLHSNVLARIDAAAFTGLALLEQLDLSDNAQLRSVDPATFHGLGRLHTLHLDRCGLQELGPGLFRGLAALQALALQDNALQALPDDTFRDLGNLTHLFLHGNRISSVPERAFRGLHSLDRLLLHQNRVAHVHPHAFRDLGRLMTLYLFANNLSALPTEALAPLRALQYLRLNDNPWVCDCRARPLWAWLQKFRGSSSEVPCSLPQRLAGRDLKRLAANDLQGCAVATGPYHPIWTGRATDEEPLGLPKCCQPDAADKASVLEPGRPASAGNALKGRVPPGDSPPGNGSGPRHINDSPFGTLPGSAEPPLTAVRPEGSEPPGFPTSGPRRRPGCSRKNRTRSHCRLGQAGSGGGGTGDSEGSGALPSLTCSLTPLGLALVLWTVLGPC
Kind of test: AP-ligand binding, COS-7.

Test [5] deals with T5, human NgR1 alanine mutant 182, 186 (human, UniProt Q9BZR6 27-473).
T5 sequence: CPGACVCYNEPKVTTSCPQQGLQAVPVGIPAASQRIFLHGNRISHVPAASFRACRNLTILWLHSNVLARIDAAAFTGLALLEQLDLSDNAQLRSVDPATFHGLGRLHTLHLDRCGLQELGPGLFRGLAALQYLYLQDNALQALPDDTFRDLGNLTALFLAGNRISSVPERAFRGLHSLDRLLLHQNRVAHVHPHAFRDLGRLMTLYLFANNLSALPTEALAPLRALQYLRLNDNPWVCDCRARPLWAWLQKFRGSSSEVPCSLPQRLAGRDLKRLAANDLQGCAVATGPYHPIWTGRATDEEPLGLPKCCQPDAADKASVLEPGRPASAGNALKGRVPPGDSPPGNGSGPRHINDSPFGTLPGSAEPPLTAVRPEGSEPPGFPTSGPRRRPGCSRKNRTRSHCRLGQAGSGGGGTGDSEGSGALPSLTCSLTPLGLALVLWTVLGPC
Kind of test: AP-ligand binding, COS-7.

The target of test [6] is T6, human NgR1 alanine mutant 82, 179 (human, UniProt Q9BZR6 27-473).
T6 sequence: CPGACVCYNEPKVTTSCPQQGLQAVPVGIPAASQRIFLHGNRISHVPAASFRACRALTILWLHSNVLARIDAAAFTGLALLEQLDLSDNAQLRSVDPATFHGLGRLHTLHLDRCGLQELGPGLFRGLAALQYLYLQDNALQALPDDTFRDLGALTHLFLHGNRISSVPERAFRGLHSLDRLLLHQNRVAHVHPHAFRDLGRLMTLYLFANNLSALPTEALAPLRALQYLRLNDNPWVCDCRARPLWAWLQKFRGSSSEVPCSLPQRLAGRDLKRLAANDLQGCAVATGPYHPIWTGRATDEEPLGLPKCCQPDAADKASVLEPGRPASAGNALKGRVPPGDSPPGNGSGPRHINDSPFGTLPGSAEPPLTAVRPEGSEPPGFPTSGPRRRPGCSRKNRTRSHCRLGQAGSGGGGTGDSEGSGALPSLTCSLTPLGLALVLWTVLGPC
In words: AP-ligand binding, COS-7.

Test [7] addresses T7, human NgR1 alanine mutant 232, 234 (human, UniProt Q9BZR6 27-473).
T7 sequence: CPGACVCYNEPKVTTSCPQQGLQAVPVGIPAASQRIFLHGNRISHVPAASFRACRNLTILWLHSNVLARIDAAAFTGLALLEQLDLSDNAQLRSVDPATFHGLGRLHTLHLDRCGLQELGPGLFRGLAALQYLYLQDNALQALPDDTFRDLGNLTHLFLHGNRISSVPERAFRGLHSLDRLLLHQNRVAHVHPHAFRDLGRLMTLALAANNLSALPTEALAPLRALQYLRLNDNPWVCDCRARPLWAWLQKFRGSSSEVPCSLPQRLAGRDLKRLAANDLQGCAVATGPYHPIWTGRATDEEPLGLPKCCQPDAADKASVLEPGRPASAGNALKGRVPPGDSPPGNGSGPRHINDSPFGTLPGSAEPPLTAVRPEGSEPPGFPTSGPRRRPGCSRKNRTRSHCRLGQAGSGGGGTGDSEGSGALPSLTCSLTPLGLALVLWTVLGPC
In words: AP-ligand binding, COS-7.

Test [8] has as its target T8, AP-fused Amino-Nogo fragment B4C (a.a. 950-1018) (human, UniProt Q9NQC3 950-1018).
T8 construct: also called AmNg B4C; AP-B4C; not shown: alkaline phosphatase (AP), vector pcAP6
T8 sequence: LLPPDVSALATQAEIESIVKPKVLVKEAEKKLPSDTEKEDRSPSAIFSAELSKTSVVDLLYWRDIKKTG
In words: AP fusion on NgR-expressing COS-7 cells. An excerpt: (§1) Several alkaline phosphatase (AP) fusion proteins containing various Nogo-A segments derived from regions between the amino terminus and the first hydrophobic segment were examined to identify the mechanism of Amino-Nogo-A action. To generate additional AP fusion proteins, human amino Nogo fragments were amplified and ligated to the pcAP6 vector digested with restriction enzymes EcoRI and XhoI as described (Fournier, A. E., et al., Nature 409:341-346 (2001)). Plasmids were then transfected into HEK293T cells and conditioned media were collected after 7 days. None of these fragments bind with high affinity to non-transfected COS-7 cells. […] This binding is saturable with a Kd indistinguishable from that for AP-Nogo-66 association with NgR (Table I). To better define the region responsible for Amino-Nogo interaction with NgR, a range of truncation mutants of Amino-Nogo were examined as AP fusion proteins.
(§2) Binding Kds for AP fused Amino-Nogo fragments were measured by applying conditioned media containing AP fusion protein to NgR expressing COS-7 cells. Bound AP was stained and measured.

For test [9], the target named is T9, AP-fused Amino-Nogo fragment B (a.a. 622-1018) (human, UniProt Q9NQC3 622-1018).
T9 construct: also called AmNg B; AP-AmNgB; not shown: alkaline phosphatase (AP), vector pcAP6
T9 sequence: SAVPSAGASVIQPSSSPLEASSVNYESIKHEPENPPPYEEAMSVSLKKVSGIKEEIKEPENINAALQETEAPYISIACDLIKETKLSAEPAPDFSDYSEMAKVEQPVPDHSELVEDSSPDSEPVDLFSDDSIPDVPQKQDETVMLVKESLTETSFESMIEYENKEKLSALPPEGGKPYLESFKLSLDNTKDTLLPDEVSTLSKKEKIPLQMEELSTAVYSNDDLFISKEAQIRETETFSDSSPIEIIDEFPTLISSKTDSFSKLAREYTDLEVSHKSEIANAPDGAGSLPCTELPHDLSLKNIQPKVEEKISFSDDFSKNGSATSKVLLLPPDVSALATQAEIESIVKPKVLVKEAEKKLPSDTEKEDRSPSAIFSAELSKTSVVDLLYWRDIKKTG
In words: AP fusion on NgR-expressing COS-7 cells.
Excerpt: as §1, §2

Test [10] has as its target T10, AP-fused Amino-Nogo fragment B4 (a.a. 877-1018) (human, UniProt Q9NQC3 877-1018).
T10 construct: also called AmNg B4; AP-B4; not shown: alkaline phosphatase (AP), vector pcAP6
T10 sequence: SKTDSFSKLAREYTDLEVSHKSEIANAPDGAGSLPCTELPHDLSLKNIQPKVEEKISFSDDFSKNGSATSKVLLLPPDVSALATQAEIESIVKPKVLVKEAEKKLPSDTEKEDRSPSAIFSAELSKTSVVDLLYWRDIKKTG
In words: AP fusion on NgR-expressing COS-7 cells.
Excerpt: as §1, §2

Test [11] deals with B1. In words: AP fusion on NgR-expressing COS-7 cells.
Excerpt: as §1, §2

One may read the Kd as the equilibrium constant for the complex coming apart. Higher therefore signals lower affinity.

In test [1], B1 registered a Kd of 0.42 nM. Besides, the binding result in [2], in test [3], in test [4], in [5], in test [6] and in test [7] was “no binding” in each case.

B2: NgR expressed on COS-7 cells (species not stated) (receptor)
chain: CPGACVCYNEPKVTTSCPQQGLQAVPVGIPAASQRIFLHGNRISHVPAASFRACRNLTILWLHSNVLARIDAAAFTGLALLEQLDLSDNAQLRSVDPATFHGLGRLHTLHLDRCGLQELGPGLFRGLAALQYLYLQDNALQALPDDTFRDLGNLTHLFLHGNRISSVPERAFRGLHSLDRLLLHQNRVAHVHPHAFRDLGRLMTLYLFANNLSALPTEALAPLRALQYLRLNDNPWVCDCRARPLWAWLQKFRGSSSEVPCSLPQRLAGRDLKRLAANDLQGCAVATGPYHPIWTGRATDEEPLGLPKCCQPDAADKASVLEPGRPASAGNALKGRVPPGDSPPGNGSGPRHINDSPFGTLPGSAEPPLTAVRPEGSEPPGFPTSGPRRRPGCSRKNRTRSHCRLGQAGSGGGGTGDSEGSGALPSLTCSLTPLGLALVLWTVLGPC
Regarding B2, the Kd in test [8] was 3.51 nM; in [9], 6.66 nM; in [10] it was 9.01 nM; in test [11], < 1 nM.
